From the Immune Epitope Database (IEDB) come the findings set out here.

One test has as its target HLA-B*15:03. Nature of the test: IEDB peptide-MHC binding, purified MHC/competitive/radioactivity; filed as Kd, often an IC50 or EC50 that approximates it; ≥ and ≤ were set here for values at or beyond the usual limits of such assays.
A further test concerns the target HLA-A*32:01. The description is as above.
The target in the next test is HLA-B*15:01. The test is described as above.
In a further test the target is HLA-B*08:01. The test is described as above.
Another test deals with HLA-B*45:01. The description is as above.
Another test deals with HLA-B*40:01. The test is described as above.
The next test concerns the target HLA-B*40:02. The description is as above.
The target in the next test is HLA-B*44:02. The description is as above.
The target in the next test is HLA-B*44:03. The test is described as above.
The target in the next test is HLA-B*18:01. Described as above.
In the next test the target is HLA-A*02:01. The description is as above.
The next test addresses HLA-A*30:01. The description is as above. To be noted: source organism: Vaccinia virus WR.
The target of a further test is HLA-B*53:01. The test is described as above.
The target in another test is HLA-B*07:02. The description is as above.
Another test has as its target HLA-B*51:01. Described as above. To be noted: source organism: Dengue virus 3 Sri Lanka/1266/2000.
In another test the target is HLA-A*26:01. The experiment in a line: IEDB peptide-MHC binding, purified MHC/competitive/fluorescence; filed as Kd, often an IC50 or EC50 that approximates it; ≥ and ≤ were set here for values at or beyond the usual limits of such assays. To be noted: source organism: Escherichia coli str. K-12 substr. MG1655.
[1] abbreviates: source organism: Vaccinia virus WR.
[2] abbreviates: source organism: Vaccinia virus Copenhagen.
The mark [3] stands for this setting: source organism: Mammarenavirus brazilense.
Setting [4] is: source organism: SARS coronavirus Tor2.
Setting [5] is: source organism: Lassa virus Josiah.
Setting [6] is: source organism: Dengue virus 1 Brazil/97-11/1997.
Setting [7] is: source organism: Mammarenavirus machupoense.

Broadly, the Kd is the constant that tells how readily two partners part at equilibrium. As to FQVVNPHLL, the dissociation constant Kd with HLA-B*15:03 (setting [1]) was determined as 40.3 nM.
In the case of HMAYSFQTF, the Kd with HLA-A*32:01 (setting [2]) was determined as 16.3 nM; in the test with HLA-B*15:03 (setting [2]), 0.279 nM; with HLA-B*15:01 (setting [2]), 0.246 nM; with HLA-B*08:01 (setting [2]) it was 733 nM.
Turning to CSAPPGQHM, the figures for the Kd with HLA-B*15:03 (setting [1]) and with HLA-B*15:01 (setting [1]) were 24 nM and 52.7 nM, respectively.
On to LESAQPGLL, for which the Kd with HLA-B*45:01 (setting [3]) was 13500 nM; with HLA-B*40:01 (setting [3]), 147 nM; in the test with HLA-B*40:02 (setting [3]), 431 nM; in the test with HLA-B*44:02 (setting [3]), 2950 nM; with HLA-B*44:03 (setting [3]) it was 16800 nM; with HLA-B*18:01 (setting [3]), no less than 10000 nM.
Turning to KENDSKEGFF, the Kd amounted to 24.4 nM with HLA-B*45:01 (setting [4]); 2690 nM with HLA-B*40:01 (setting [4]); 366 nM in the test with HLA-B*40:02 (setting [4]); 39.8 nM in the test with HLA-B*44:02 (setting [4]); 30 nM with HLA-B*44:03 (setting [4]); 7490 nM with HLA-B*18:01 (setting [4]).
Take RAAGLQDCTML: the Kd with HLA-A*02:01 (source organism: Hepatitis C virus (isolate 1)) is no less than 50000 nM.
In the case of RSHIRKPPS, the Kd with HLA-A*32:01 (setting [1]) is no less than 77800 nM; in the test with HLA-B*15:03 (setting [1]), no less than 23100 nM; in the test with HLA-A*30:01, 82.1 nM; with HLA-B*15:01 (setting [1]), 11000 nM; with HLA-B*08:01 (setting [1]), 3330 nM.
Take LIRNKRLSL: the Kd is no less than 77800 nM with HLA-A*32:01 (setting [1]); 215 nM in the test with HLA-B*15:03 (setting [1]); 696 nM in the test with HLA-A*30:01; 455 nM with HLA-B*15:01 (setting [1]); 0.783 nM with HLA-B*08:01 (setting [1]).
Consider LIGARRTSF, for which the Kd in the test with HLA-A*32:01 (setting [1]) was 5820 nM; with HLA-B*15:03 (setting [1]) it was 176 nM; in the test with HLA-A*30:01, 563 nM; with HLA-B*15:01 (setting [1]), 40.1 nM; with HLA-B*08:01 (setting [1]), 1.5 nM.
Consider SEETGTLIV, for which the Kd was 121 nM with HLA-B*45:01 (setting [4]); 1930 nM in the test with HLA-B*40:01 (setting [4]); 7260 nM with HLA-B*40:02 (setting [4]); no less than 50100 nM in the test with HLA-B*44:02 (setting [4]); no less than 27600 nM in the test with HLA-B*44:03 (setting [4]); no less than 50500 nM in the test with HLA-B*18:01 (setting [4]).
In the case of GLTYSQLMT, the Kd in the test with HLA-A*02:01 (setting [5]) is 12500 nM.
LPETMETLL: the Kd in the test with HLA-B*53:01 (source organism: Dengue virus 3 Martinique/1243/1999) came to 3580 nM.
Turning to QPMEHKYSW, the Kd in the test with HLA-B*07:02 (setting [6]) was 141 nM; with HLA-B*53:01 (setting [6]) it was 57.8 nM.
In the case of MKSLAMTAF, the Kd with HLA-B*15:03 (setting [1]) turned out to be 0.182 nM.
Consider LPMTVAAMGV, for which the Kd in the test with HLA-B*07:02 (source organism: Dengue virus 3 Sri Lanka/1266/2000) is 50.7 nM; with HLA-B*51:01, 633 nM.
For the sequence YECLYRNRDV, the Kd was 2510 nM with HLA-B*45:01 (setting [4]); 2410 nM in the test with HLA-B*40:01 (setting [4]); 1720 nM with HLA-B*40:02 (setting [4]); 5550 nM with HLA-B*44:02 (setting [4]); 10300 nM in the test with HLA-B*44:03 (setting [4]); no less than 70500 nM in the test with HLA-B*18:01 (setting [4]).
Turning to EEPVPLLPLS, the Kd was 1950 nM in the test with HLA-B*45:01 (setting [7]); no less than 32000 nM with HLA-B*40:01 (setting [7]); 7130 nM in the test with HLA-B*40:02 (setting [7]); 15700 nM with HLA-B*44:02 (setting [7]); 6260 nM in the test with HLA-B*44:03 (setting [7]); no less than 52400 nM with HLA-B*18:01 (setting [7]).
Take LEFIHSQGF: the Kd in the test with HLA-B*15:03 (setting [1]) worked out at 107 nM.
For IDPTLTTWI, the dissociation constant Kd with HLA-B*45:01 (setting [3]) was 7230 nM; with HLA-B*40:01 (setting [3]) it was no less than 53300 nM; in the test with HLA-B*40:02 (setting [3]) it was no less than 10000 nM; with HLA-B*44:02 (setting [3]), 3580 nM; with HLA-B*44:03 (setting [3]), 1370 nM; with HLA-B*18:01 (setting [3]), no less than 42000 nM.
As for MTSYQYLII, the Kd with HLA-A*02:01 (setting [5]) was determined as 926 nM.
MIEEVMRSRW: the Kd with HLA-B*53:01 (setting [6]) turned out to be 166 nM.
TEKSNVVRG: the Kd was no less than 31800 nM with HLA-B*45:01 (setting [4]); no less than 42700 nM with HLA-B*40:01 (setting [4]); no less than 50300 nM with HLA-B*40:02 (setting [4]); 11900 nM with HLA-B*44:02 (setting [4]); no less than 78200 nM with HLA-B*44:03 (setting [4]); no less than 77500 nM with HLA-B*18:01 (setting [4]).
With YEQYIKWPWY, the Kd with HLA-B*45:01 (setting [4]) turned out to be 518 nM; with HLA-B*40:01 (setting [4]), 1220 nM; in the test with HLA-B*40:02 (setting [4]), 7600 nM; with HLA-B*44:02 (setting [4]), 41.6 nM; with HLA-B*44:03 (setting [4]), 119 nM; with HLA-B*18:01 (setting [4]) it was 79.3 nM.
As to SMYPSYIEF, the Kd with HLA-B*15:03 (setting [1]) was 0.11 nM.
DVAKIEAPL displayed a Kd in the test with HLA-A*26:01 of 324 nM.
